The chains are these.
B1: NIgG4B1A1(G4S)3 (Fc fusion)
chain 1: QVQLQESGGGLVQTGGSLRLSCAVHGRTFSNTGMGWFRQAPGNERQFVAIISPSGTSTYYADSVKGRFTISRDPAKNTVYLQMNSLKMDDTAVYYCAASYGSNWSTLRHQRRNEYDAWGQGTQVAVSGGGGSGGGGSGGGGSGPPCPPCPAPEFLGGPSVFLFPPKPKDTLMISRTPEVTCVVVDVSQEDPEVQFNWYVDGVEVHNAKTKPREEQFNSTYRVVSVLTVLHQDWLNGKEYKCKVSNKGLPSSIEKTISKAKGQPREPQVYTLPPCQEEMTKNQVSLWCLVKGFYPSDIAVEWESNGQPENNYKTTPPVLDSDGSFFLYSRLTVDKSRWQEGNVFSCSVMHEALHNHYTQKSLSLSLGK
chain 2: EVQLLESGGGLVQPGGSLRLSCAASGFTFGNYDMAWVRQAPGKRPEWVSSIDTGGDITHYADSVKGRFTISRDNAKNTLYLQMNSLRPEDTAVYWCATDEEYALGPNEFDYYGQGTLVTVSSGGGGSGGGGSGGGGSGPPCPPCPAPEFLGGPSVFLFPPKPKDTLMISRTPEVTCVVVDVSQEDPEVQFNWYVDGVEVHNAKTKPREEQFNSTYRVVSVLTVLHQDWLNGKEYKCKVSNKGLPSSIEKTISKAKGQPREPQVCTLPPSQEEMTKNQVSLSCAVKGFYPSDIAVEWESNGQPENNYKTTPPVLDSDGSFFLVSRLTVDKSRWQEGNVFSCSVMHEALHNHYTQKSLSLSLGK
B2: NIgG4B1A1(G4S)2 (Fc fusion)
chain 1: QVQLQESGGGLVQTGGSLRLSCAVHGRTFSNTGMGWFRQAPGNERQFVAIISPSGTSTYYADSVKGRFTISRDPAKNTVYLQMNSLKMDDTAVYYCAASYGSNWSTLRHQRRNEYDAWGQGTQVAVSGGGGSGGGGSGPPCPPCPAPEFLGGPSVFLFPPKPKDTLMISRTPEVTCVVVDVSQEDPEVQFNWYVDGVEVHNAKTKPREEQFNSTYRVVSVLTVLHQDWLNGKEYKCKVSNKGLPSSIEKTISKAKGQPREPQVYTLPPCQEEMTKNQVSLWCLVKGFYPSDIAVEWESNGQPENNYKTTPPVLDSDGSFFLYSRLTVDKSRWQEGNVFSCSVMHEALHNHYTQKSLSLSLGK
chain 2: EVQLLESGGGLVQPGGSLRLSCAASGFTFGNYDMAWVRQAPGKRPEWVSSIDTGGDITHYADSVKGRFTISRDNAKNTLYLQMNSLRPEDTAVYWCATDEEYALGPNEFDYYGQGTLVTVSSGGGGSGGGGSGPPCPPCPAPEFLGGPSVFLFPPKPKDTLMISRTPEVTCVVVDVSQEDPEVQFNWYVDGVEVHNAKTKPREEQFNSTYRVVSVLTVLHQDWLNGKEYKCKVSNKGLPSSIEKTISKAKGQPREPQVCTLPPSQEEMTKNQVSLSCAVKGFYPSDIAVEWESNGQPENNYKTTPPVLDSDGSFFLVSRLTVDKSRWQEGNVFSCSVMHEALHNHYTQKSLSLSLGK
B3: CIgG4B1A1(RS) (Fc fusion)
chain 1: GPPCPPCPAPEFLGGPSVFLFPPKPKDTLMISRTPEVTCVVVDVSQEDPEVQFNWYVDGVEVHNAKTKPREEQFNSTYRVVSVLTVLHQDWLNGKEYKCKVSNKGLPSSIEKTISKAKGQPREPQVYTLPPCQEEMTKNQVSLWCLVKGFYPSDIAVEWESNGQPENNYKTTPPVLDSDGSFFLYSRLTVDKSRWQEGNVFSCSVMHEALHNHYTQKSLSLSLGKRSQVQLQESGGGLVQTGGSLRLSCAVHGRTFSNTGMGWFRQAPGNERQFVAIISPSGTSTYYADSVKGRFTISRDPAKNTVYLQMNSLKMDDTAVYYCAASYGSNWSTLRHQRRNEYDAWGQGTQVAVS
chain 2: GPPCPPCPAPEFLGGPSVFLFPPKPKDTLMISRTPEVTCVVVDVSQEDPEVQFNWYVDGVEVHNAKTKPREEQFNSTYRVVSVLTVLHQDWLNGKEYKCKVSNKGLPSSIEKTISKAKGQPREPQVCTLPPSQEEMTKNQVSLSCAVKGFYPSDIAVEWESNGQPENNYKTTPPVLDSDGSFFLVSRLTVDKSRWQEGNVFSCSVMHEALHNHYTQKSLSLSLGKRSEVQLLESGGGLVQPGGSLRLSCAASGFTFGNYDMAWVRQAPGKRPEWVSSIDTGGDITHYADSVKGRFTISRDNAKNTLYLQMNSLRPEDTAVYWCATDEEYALGPNEFDYYGQGTLVTVSS

EC50 and Max effect data for three molecules are collected here from patent US20250171562A1 (ALK ABELL, published 2025).

The target in the experiment is T1, recombinant human IgE (human, UniProt P01854-1 1-428).
T1 construct: made in-house (ALK); preloaded on immobilised FcεRIα in the displacement ELISA
T1 sequence (P01854 other isoform, or with tags, fused parts or gaps): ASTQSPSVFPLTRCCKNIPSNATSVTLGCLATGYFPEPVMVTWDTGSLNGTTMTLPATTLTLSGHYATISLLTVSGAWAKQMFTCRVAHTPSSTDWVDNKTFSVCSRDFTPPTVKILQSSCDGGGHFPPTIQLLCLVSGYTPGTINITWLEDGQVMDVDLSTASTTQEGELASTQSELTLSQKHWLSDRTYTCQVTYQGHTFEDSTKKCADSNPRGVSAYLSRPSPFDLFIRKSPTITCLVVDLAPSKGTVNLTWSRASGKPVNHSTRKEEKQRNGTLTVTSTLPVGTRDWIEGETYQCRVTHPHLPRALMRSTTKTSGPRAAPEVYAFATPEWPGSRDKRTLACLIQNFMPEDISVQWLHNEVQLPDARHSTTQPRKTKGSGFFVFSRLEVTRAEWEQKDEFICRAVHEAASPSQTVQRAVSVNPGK
Put plainly: IgE-FcεRIα displacement ELISA. As to the method:
The displacement effect was tested using IgE-FcεRIα displacement ELISA assay. Maxisorp® microtiter plates (Thermo Scientific Nunc, Roskilde, Denmark) were coated with 100 μl streptavidin, 5 μg/ml (Thermo Scientific, Waltham, MA) for 18 h at 4° C. followed by wash with 300 μl washing buffer (PBS containing 0.05% Tween 20) using an AquaMax® 2000 plate washer (Molecular Devices, San Jose, CA). Remaining binding sites were blocked with 250 μl blocking buffer (PBS containing 2% BSA) for 2 h and washed with 300 μl washing buffer. Subsequently, the bound streptavidin was loaded with 100 μl (0.1 μg/ml) recombinant human FcεRIα (site specific biotinylated via avi-tag, made in-house, ALK, Hørsholm, Denmark) for 1 h and plates washed twice with 300 μl washing buffer. The bound receptor was then loaded with 100 μl recombinant human IgE (made in-house, ALK, Hørsholm, Denmark), 13 ng/ml (pre-titrated to reach an OD₄₅₀ signal in the range of 1.5-2.5 in the absence of displacement components) for 1h followed by three washes of 300 μl washing buffer.
displacement step: 100 μl sdAbs diluted in concentration series (pM-μM range) or blocking buffer only as a non-displacement negative control, were added to the ELISA wells and incubated for 1 h. Any IgE, displaced from the receptor by a sdAb was washed away by three washes of 300 μl washing buffer.
The ability of the various sdAbs to displace IgE from the receptor (FcεRIα) was evaluated by use of the ELISA based IgE-FcεRIα displacement assay. The percent displacement effect was calculated as the relative reduction in signal compared to the control with no sdAb added. The EC₅₀ values and the maximal effects were determined (table 15).
On the technique in general: ELISA stands for enzyme-linked immunosorbent assay.
What is called EC50 is the concentration giving half of the maximal effect. As to B1, the EC50 stood at 0.9 nM and the Max effect was over 95%.

As to B2, the EC50 worked out at 1.4 nM and the Max effect is over 95%.

On to B3, for which the EC50 was found to be 9.8 nM and the Max effect is over 95%.
